Results published in US11906524B2, “Urea biosensors and uses thereof” (Duke University, priority 2015, dated 2024).
Changes are numbered by the printed parent chain. Names may count otherwise. Where two headings read alike, the source gives them in different places.

B1: csUBP7: urea-binding protein from Caldicellulosiruptor saccharolyticus, C89A, SEQ ID NO: 18 (protein)
chain: MSSSESEKEKSEETIKVGILHSLSGTMSISEVSLKDAELMAIEEINNNGGVLGKKLEPIVEDGASDWPTFAEKAKKLLQKDKVAVIFGAWTSASRKAVLPVVEENNGLLFYPVQYEGLESSPNIFYMGAAPNQQIVPAVKWLFDNGKKRFYLLGSDYVFPRTANKIIKAYLKYLGGVVVGEEYTPLGHTDYSSVINKIKAAKPDVVFNTLNGDSNVAFFKQLKDAGIDANTLPVMSVSIAEEEIKGIGPEYLKGHLVTWNYFQSVDTPENKEFVEKYKKKYGEDRVTDDPIEAAYIGVYLWAKAVEKAGSTDVDKVREAAKGIEFNAPEGPVKIDGDNQHLYKTVRIGEILENGQIRELWKTNKPVKPDPYLKGYEWAQGLSEQGGSHHHHHH
modifications: csUBP7 (with signal peptide replaced with M and a GGSHHHHHH at C-terminus, and also comprising a C89A substitution)
B2: csUBP7 N211C: csUBP7 211C cysteine mutant (SEQ ID NO: 41), tested as Acrylodan and Badan conjugates (conjugate)
chain: B1 chain with N211C
modifications: Acrylodan or Badan conjugate; csUBP7_211C (211C substitution mutant with signal peptide replaced with M and a GGSHHHHHH at C-terminus, and also comprising a C89A substitution)
B3: csUBP7 Y157C: csUBP7 157C cysteine mutant (SEQ ID NO: 37), tested as Acrylodan and Badan conjugates (conjugate)
chain: B1 chain with Y157C
modifications: Acrylodan or Badan conjugate; csUBP7_157C (157C substitution mutant with signal peptide replaced with M and a GGSHHHHHH at C-terminus, and also comprising a C89A substitution)
B4: csUBP7 L186C: csUBP7 186C cysteine mutant (SEQ ID NO: 40), tested as Acrylodan and Badan conjugates (conjugate)
chain: B1 chain with L186C
modifications: Acrylodan or Badan conjugate; csUBP7_186C (186C substitution mutant with signal peptide replaced with M and a GGSHHHHHH at C-terminus, and also comprising a C89A substitution)
B5: gkUBP10: urea-binding protein from Geobacillus kaustophilus with FATT domain, SEQ ID NO: 20 (protein)
chain: MAEESDNVDSADAEEDDSDVWWGGADTDYADGSEDKVVEVAEEEEVAEVEEEEADDDEDDEDGDEVEEEAEEPYEEATERTTSIATTTTTTTESVEEVLEVLFQGPASSAVDQAKNENKKDSSSASKEGDTVKVGILHSLSGTMAISEVSLRDAELMAIEEINASGGLLGKKIEPVVEDGASDWPTFAEKAKKLLQKDQVAAIFGGWTSASRKAMLPVVEQNNGLLWYPVQYEGMESSPNIFYTGATTNQQIVPAVSWLLKNRGKTFFLLGSDYVFPRTANKIIKAQLKAEGGQVVGEEYTPLGHTDYSTIISKIKQVKPAVVFNTLNGDSNVAFFKQLKDAGITPKDVTVMSVSIAEEEIRGIGPDVLAGHLAVWNYFQTTDTPENKAFVQKYKEKYGQDRVTDDPIEAAYTAVHLWAEAVKKAGSFDVDQVKKAAAGLEYKAPEGTVKIDGETQHLWKTVRIGEIQADGQFKELWNSGQPVKPDPYLKSYPWAKGLSEGGSHHHHHHHH
modifications: gkUBP10 (with signal peptide replaced with M, which is followed by a FATT domain, followed by a sequence fragment for C3 protease, and with a GGSHHHHHH at C-terminus)
B6: ctUBP6: urea-binding protein from Clostridium thermocellum, SEQ ID NO: 17 (protein)
chain: MVEEPVDNKPGTDTSAEDTIKVGILHSLSGTMAISEVSLKDAELMAIEEINQAGGLLGKKIEPVIEDGASDWPTFAEKAKKLLQNDKVATVFGCWTSASRKAVLPVFEENNGLLWYPVQYEGMESSPNIFYTGAAPNQQIVPAVEWLLENKGKRFFLLGSDYVFPRTANKIIKAQLSAIGGELIAEEYTPLGHTDYSTIVNKIKTAKPDVVFNTLNGDSNVAFFKQLKDAGITSEDITVCSVSVAEEEIRGIGAENIKGHLVSWNYYQTTDTPENKEFVEKYKSKYGSDRVTDDPIEAAYIAVHLWAEAVKKAGSFEVEKVKEAAKGLEFKAPEGLVKIEGENQHLWKPVRIGEVQEDGLIKEIWSTSEAVRPDPYLKTYDWAKGLSDGGSHHHHHH
modifications: ctUBP6 (with signal peptide replaced with M and a GGSHHHHHH at C-terminus)
B7: psUBP11: urea-binding protein from Paenibacillus sp. with FATT domain, SEQ ID NO: 21 (protein)
chain: MAEESDNVDSADAEEDDSDVWWGGADTDYADGSEDKVVEVAEEEEVAEVEEEEADDDEDDEDGDEVEEEAEEPYEEATERTTSIATTTTTTTESVEEVLEVLFQGPKETAPTAGAGNGSPPVEAAGDSIKVGILHSLSGTMAISEVSVKDAEMLAIEEINAAGGVLGKQIEPVIEDGASDWPTFAEKAGKLLQQDKVAAVFGGWTSASRKAMLPVFEQNHGLLFYPVQYEGLESSPNIFYTGATTNQQIVPSVSWLLENRGKKMFLLGSDYVFPRTANKIIKAQLTAEGGELAGEEYTPLGHTDFSTIIAKIKEAKPDIVYNTLNGDSNVAFFKQLKDAGTTSKDMTTLSVSVAEEEIRGIGADILEGHLAAWNYYQSTDTPENKAFVDKYKAKYGADRVTADPIEAGYTAVYLWKAAVEKAGTTDVDKVKEAAKGIEFAAPEGKVTIDGDNQHIHKTVRIGEVQADGQFKELWNSGEPVKPDPYLKTYDWAKGLSGEGGSHHHHHH
modifications: psUBP11 (with signal peptide replaced with M, which is followed by a FATT domain, followed by a sequence fragment for C3 protease, and with a GGSHHHHHH at C-terminus)

Tests used:
[1] = Thermal stability of purified UBP candidates (SYPRO Orange thermal melt, Roche LightCycler); assay type: physicochemical; conditions: apo-protein; SYPRO Orange monitors unfolded protein
Description: The urea-binding properties of these leads were determined experimentally (Table 4). These experiments comprise four successive steps: • 1. Synthetic gene construction. […] Heterologous protein expression of the homologues in E. coli. […] Verification of urea binding.
Analysis of urea-binding properties using thermal melts.

[2] = Temperature- and urea-dependent fluorescence landscapes of fluorescent conjugates (Roche LightCycler); assay type: binding; parameters: key: y, yes; n, no; conditions: fluorescent response to urea
Description: We constructed 20 single cysteine mutants in csUBP7, exploring 7 endosteric, 12 peristeric, and 1 allosteric position (FIG. 9). At each position we attached the Prodan-derived fluorophores Acrylodan and Badan, which differ by one methylene group in their thiol-reactive linker. The fluorescent responses of these conjugates was determined initially as a function of urea concentration and temperature (FIG. 10). […] The ligand dependence of the emission spectra shapes was determined for these conjugates (Table 8).
Determination of temperature- and ligand-dependent fluorescence landscapes. […] Urea concentrations were varied from 0-4.8 M in 20 mM KCl, 20 mM MOPS (pH 7.4). […] Temperatures were advanced in 1K steps.
(§1) Ratiometric analysis of urea binding. […] 2
(§2) For a single urea-binding site, the fractional saturation is given by
(§3) [formula] where [L] is the ligand (urea) concentration and Kd the dissociation constant, ^trueKd for ytrue.
To obtain the temperature dependence of the binding reaction, the Kd values of all the individually determined isotherms were fit the Gibbs-Hemholtz equation (Layton and Hellinga, 2010, Biochemistry, 49, 10831-41):
[formula] where ΔGb^•(T) is the standard free energy of binding at 1 M ligand at temperature T,
[formula] Δ^refHb^• and Δ^refSb^• the molar enthalpy and entropy of binding, respectively, at the reference temperature, Tref, and ΔCp,b the heat capacity of the binding reaction.

[3] = Urea titration of emission intensity spectra (Nanodrop3300) with ratiometric analysis, singly labeled conjugates; assay type: binding; parameters: key to Acrylodan Intensity / Badan Intensity: +, increases in response to urea; −, decreases; 0, no change; key to Badan Dipoles / Acrylodan Dipoles: blue, (maxima <500 nm); g, green (maxima >500 nm); b/g, mixed population; key to Acrylodan Shape / Badan Shape: m, monochromatic; d, dichromatic (i.e. spectral shape changes); 0, no change; conditions: for Acrylodan Shape / Badan Shape: emission spectrum shape change on urea; for Acrylodan Dipoles / Badan Dipoles: estimated change in populations of major emission bands; for Badan Intensity / Acrylodan Intensity: emission intensity change on urea; for Kd: urea
Source text: Determination of emission intensity spectra.
as §1, §2, §3
[formula] where ^appIλ2 and ^satIλ2 are the emission intensities of the monochromatic signal at wavelength λ2 of the ligand-free and ligand-bound protein, respectively.

[4] = csUBP7 Badan conjugate, read-out: Badan ^trueKd

Molecule | Thermostability ^apoTm [1] | Response ([2]; Acrylodan conjugate) | Response ([2]; Badan conjugate) | Acrylodan Shape ([3]; csUBP7 Acrylodan conjugate) | Acrylodan Dipoles ([3]; csUBP7 Acrylodan conjugate) | Badan Intensity ([3]; csUBP7 Badan conjugate) | Badan Shape ([3]; csUBP7 Badan conjugate) | Badan Dipoles ([3]; csUBP7 Badan conjugate) | Kd [3, 4] | Acrylodan Intensity ([3]; csUBP7 Acrylodan conjugate) | Kd ([3]; csUBP7 Acrylodan conjugate, read-out: Acrylodan ^trueKd)
B1 | 67 °C |  |  |  |  |  |  |  |  |  | 
B2 |  | y | y | 0 | g (g, green (maxima >500 nm)) | + | d | g→b/g | 15 mM |  | 
B3 |  | y | y | m |  | + | m | b/g | 16 mM | + | 3.4 mM
B4 |  | y | n | d | b/g→g |  | 0 | g (g, green (maxima >500 nm)) |  | − | 
B5 | >100 °C |  |  |  |  |  |  |  |  |  | 
B6 | 89 °C |  |  |  |  |  |  |  |  |  | 
B7 | 80 °C |  |  |  |  |  |  |  |  |  | 
